Five molecules from patent publication US20110143993A1 (BRIGHAM AND WOMEN S HOSPITAL, published 2011) can be followed below.

No end group written: not given here.

Sequences and labels used below:
B1: phage clone A-9 (KIFVWPY displayed on pIII of M13 phage) (peptide)
peptide: KIFVWPY
modifications: not fully specified
notes: Whole phage particle displaying the heptamer; tested as phage, detected with anti-M13 antibody; not shown: minor coat protein pIII of M13 filamentous phage (Ph.D.-7 library, New England Biolabs)
B2: phage clone A-8 (KVWSLPQ displayed on pIII of M13 phage) (peptide)
peptide: KVWSLPQ
notes: as for B1
B3: phage clone C-10 (KIWKLPQ displayed on pIII of M13 phage) (peptide)
peptide: KIWKLPQ
notes: as for B1
B4: phage clone C-11 (KLWVLPK displayed on pIII of M13 phage) (peptide)
peptide: KLWVLPK
notes: Whole phage particle displaying the heptamer; tested as phage (ELISA with anti-M13 antibody, titer counts); also called Phage C-11; not shown: minor coat protein pIII of M13 filamentous phage (Ph.D.-7 library, New England Biolabs)
B5: phage clone C-8 (HWGSLRA displayed on pIII of M13 phage) (peptide)
peptide: HWGSLRA
notes: 100% of the round 5 clones; not shown: minor coat protein pIII of M13 filamentous phage (Ph.D.-7 library, New England Biolabs)

The target of the first assay is T1, bovine serum albumin (bovine, UniProt P02769 25-607).
T1 construct: also called BSA
T1 sequence (P02769 25-607 limits assumed): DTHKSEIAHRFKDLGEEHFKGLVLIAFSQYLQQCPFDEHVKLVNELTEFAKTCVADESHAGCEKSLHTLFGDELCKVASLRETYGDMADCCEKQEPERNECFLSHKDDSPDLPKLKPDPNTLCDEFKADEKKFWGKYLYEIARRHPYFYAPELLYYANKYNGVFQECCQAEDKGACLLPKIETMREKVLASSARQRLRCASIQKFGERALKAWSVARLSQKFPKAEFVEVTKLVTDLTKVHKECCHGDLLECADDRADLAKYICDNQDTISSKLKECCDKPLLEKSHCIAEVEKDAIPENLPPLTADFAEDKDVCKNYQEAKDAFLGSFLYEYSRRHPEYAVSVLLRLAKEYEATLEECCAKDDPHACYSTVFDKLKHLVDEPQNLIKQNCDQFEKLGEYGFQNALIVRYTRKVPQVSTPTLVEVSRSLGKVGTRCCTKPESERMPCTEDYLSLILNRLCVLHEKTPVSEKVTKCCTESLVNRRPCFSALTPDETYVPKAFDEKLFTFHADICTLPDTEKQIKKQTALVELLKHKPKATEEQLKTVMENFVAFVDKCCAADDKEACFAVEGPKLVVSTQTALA
Briefly: phage ELISA on BSA-coated wells, anti-M13 HRP/ABTS. The protocol:
The clones were tested against the random library (R0) for binding to Matrigel (lighter shaded bars) or BSA (black bars). Bound phages were labeled with peroxidase-conjugated anti-M13 monoclonal antibodies (mAbs), and ABTS absorbance at 405 nm was read against a reference wavelength of 490 nm (mean±s.d., n=3). (**) P<0.01; (***) P<0.001, all compared with R0 (one-way analysis of variance with Tukey post-hoc test).
96-well plates were coated with 100 μL 1/50 dilutions of Matrigel in TBS overnight at 4° C., or TBS buffer only. Plates were blocked with 3% BSA/TBS for 2 h at RT and washed three times. 10¹⁰ p.f.u. of each phage clone was added in 0.5% TBST in triplicate to either Matrigel or BSA-coated wells. Bound phage particles were detected with peroxidase-conjugated mouse anti-M13 monoclonal antibodies at 1/5000 dilution (Amersham Pharmacia Biotech, Piscataway, N.J.). After a 1 h incubation, the reaction was developed with 2,2′-azino-bis(3-ethylbenzthiazoline-6-sulphonic acid) (ABTS) (Amersham) and the absorbance was read at 405 nm against a reference wavelength of 490 nm with a SpectraMax Plus 384 Microplate reader (Molecular Devices, Sunnyvale, Calif.).
Background: ELISA stands for enzyme-linked immunosorbent assay.
In the case of B1, the binding result is “no binding (tested: 10^10 p.f.u. of each phage clone)”.

Turning to B2, the binding result is recorded as “no binding (tested: 10^10 p.f.u. of each phage clone)”.

Regarding B3, the binding result was “no binding (tested: 10^10 p.f.u. of each phage clone)”.

As for B4, the binding result is reported as “no binding (tested: 10^10 p.f.u. of each phage clone)”.

With B5, the binding result is “no binding (tested: 10^10 p.f.u. of each phage clone)”.

In the next assay the target is T2, Matrigel growth factor reduced LDEV free (basement membrane extract rich in collagen IV and laminin).
T2 construct: A mixture coated on plates, not one protein
Briefly: phage titer count of eluted phage, input 10^12/mL p.f.u., against random library R0, n=3.
As to B4, the “fold binding compared to the library (R0), phage titer” value is ~300 fold.
